Literature values in PMC2678197 (Chemistry & biology, 2009).

Target: eotaxin (Homo sapiens, UniProt P51671)
Details: read-out: equilibrium dissociation constant (Kd); binding to eotaxin; ref [26]

- Kd: 80 ± 38 µM
Substance: 35-residue non-sulfated peptide: 35-residue non-sulfated peptide corresponding to the complete N-terminal region of CCR3 (MTTSLDTVETFGTTSYYDDVGLLCEKADTRALMAQ; unsulfated; the limits 1-35 are inferred from '35-residue' and 'complete N-terminal region')
